Experimental data from the Immune Epitope Database (IEDB).

Key:
HLA-A*24:02 [1] = test: IEDB peptide-MHC binding, purified MHC/competitive/radioactivity; filed as Kd, often an IC50 or EC50 that approximates it; ≥ and ≤ were set here for values at or beyond the usual limits of such assays
HLA-A*30:02 = test: as above
HLA-A*26:01 [2] = test: as above
HLA-A*23:01 = test: as above
HLA-A*01:01 = test: as above
HLA-A*29:02 = test: as above
HLA-A*24:02 [3] = test: IEDB peptide-MHC binding, purified MHC/competitive/fluorescence; ≥ and ≤ were set here for values at or beyond the usual limits of such assays
HLA-A*26:01 [4] = test: IEDB peptide-MHC binding, purified MHC/direct/fluorescence; filed as Kd, often an IC50 or EC50 that approximates it; ≥ and ≤ were set here for values at or beyond the usual limits of such assays
HLA-A*68:02 = test: IEDB peptide-MHC binding, purified MHC/competitive/radioactivity; filed as Kd, often an IC50 or EC50 that approximates it; ≥ and ≤ were set here for values at or beyond the usual limits of such assays
HLA-B*44:02 = test: as above; conditions: source organism: Dengue virus 4 Dominica/814669/1981
HLA-A*32:01 = test: as above
HLA-A*30:01 = test: as above; conditions: source organism: Vaccinia virus WR
HLA-A*02:01 = test: IEDB peptide-MHC binding, purified MHC/competitive/fluorescence; ≥ and ≤ were set here for values at or beyond the usual limits of such assays
HLA-B*08:01 = test: IEDB peptide-MHC binding, purified MHC/competitive/radioactivity; filed as Kd, often an IC50 or EC50 that approximates it; ≥ and ≤ were set here for values at or beyond the usual limits of such assays
HLA-A*02:06 = test: as above; conditions: source organism: Homo sapiens
HLA-B*40:01 = test: IEDB peptide-MHC binding, purified MHC/direct/fluorescence; filed as Kd, often an IC50 or EC50 that approximates it; ≥ and ≤ were set here for values at or beyond the usual limits of such assays; conditions: source organism: Orthohantavirus hantanense
HLA-B*18:01 = test: as above; conditions: source organism: Orthohantavirus hantanense
HLA-B*39:01 = test: IEDB peptide-MHC binding, purified MHC/competitive/fluorescence; filed as Kd, often an IC50 or EC50 that approximates it; ≥ and ≤ were set here for values at or beyond the usual limits of such assays; conditions: source organism: Giardia lamblia ATCC 50803
HLA-A*68:01 = test: IEDB peptide-MHC binding, purified MHC/competitive/radioactivity; filed as Kd, often an IC50 or EC50 that approximates it; ≥ and ≤ were set here for values at or beyond the usual limits of such assays; conditions: source organism: Vaccinia virus WR
HLA-A*11:01 = test: as above; conditions: source organism: Vaccinia virus WR
HLA-A*31:01 = test: as above; conditions: source organism: Vaccinia virus WR
HLA-A*03:01 = test: as above; conditions: source organism: Vaccinia virus WR
HLA-A*33:01 = test: as above; conditions: source organism: Vaccinia virus WR
[5] = source organism: SARS coronavirus Tor2
[6] = source organism: Zaire ebolavirus
[7] = source organism: Dengue virus 3 Martinique/1243/1999
[8] = source organism: Dengue virus 4 Dominica/814669/1981
[9] = source organism: Dengue virus 2 Jamaica/1409/1983
[10] = source organism: Vaccinia virus WR
[11] = source organism: Dengue virus 4 Philippines/H241/1956
[12] = source organism: Vaccinia virus
[13] = source organism: Mammarenavirus machupoense

ELADTSLSGY gave a Kd (HLA-A*24:02 [1]; [5]) of no less than 70.3 µM, a Kd (HLA-A*30:02; [5]) of 0.0767 µM and a Kd (HLA-A*26:01 [2]; [5]) of 0.0245 µM. For the same sequence, the Kd (HLA-A*23:01; [5]) was no less than 70 µM, the Kd (HLA-A*01:01; [5]) was 0.0736 µM and the Kd (HLA-A*29:02; [5]) was 0.0892 µM.

For DDDDDIPFP, the IC50 (HLA-A*24:02 [3]; [6]) was no less than 124 µM.

NSKVQIGEY was tested, and the Kd (HLA-A*24:02 [1]; [5]) was no less than 34.8 µM, the Kd (HLA-A*30:02; [5]) was 0.0572 µM and the Kd (HLA-A*26:01 [2]; [5]) was 0.235 µM. It also gave a Kd (HLA-A*23:01; [5]) of no less than 77.8 µM, a Kd (HLA-A*01:01; [5]) of no less than 37.7 µM and a Kd (HLA-A*29:02; [5]) of 2.27 µM.

With EFCDMLRLF the Kd (HLA-A*26:01 [4]; source organism: Mammarenavirus guanaritoense) was no less than 20 µM.

ESASKSASVY gave a Kd (HLA-A*24:02 [1]; [5]) of no less than 70.3 µM, a Kd (HLA-A*30:02; [5]) of 0.659 µM and a Kd (HLA-A*26:01 [2]; [5]) of 0.286 µM. The Kd (HLA-A*23:01; [5]) was no less than 70 µM, the Kd (HLA-A*01:01; [5]) was 0.3 µM and the Kd (HLA-A*29:02; [5]) was 0.374 µM.

Sequence ETQHGTILI has a Kd (HLA-A*26:01 [2]; [7]) of 12.2 µM and a Kd (HLA-A*68:02; [7]) of 0.0215 µM.

With SDLKYSWKTW the Kd (HLA-B*44:02) was 1.01 µM and the Kd (HLA-A*32:01; [8]) was 0.683 µM.

LTIPPTAGI gave a Kd (HLA-A*68:02; [9]) of 0.00207 µM.

With KTRNVIRNI the Kd (HLA-A*32:01; [10]) was 0.319 µM and the Kd (HLA-A*30:01) was 0.0718 nM.

NITDKIDQI showed an IC50 (HLA-A*24:02 [3]; [6]) of 9.67 µM and an IC50 (HLA-A*02:01; [6]) of 25.3 µM.

In the case of QVFGSVYTT, the Kd (HLA-A*32:01; [11]) is reported as 8.25 µM.

In the case of IMKIGIGVLL, the Kd (HLA-B*08:01; source organism: Dengue virus 3 Singapore/8120/1995) is reported as 4.31 µM.

With IFFASFYYI the Kd (HLA-A*24:02 [1]; [5]) was 0.0122 µM, the Kd (HLA-A*30:02; [5]) was 5.13 µM and the Kd (HLA-A*26:01 [2]; [5]) was 1.8 µM. For the same sequence, the Kd (HLA-A*23:01; [5]) was 0.00645 µM, the Kd (HLA-A*01:01; [5]) was 1.3 µM and the Kd (HLA-A*29:02; [5]) was 0.0281 µM.

DVSEWDAVY was tested, and the Kd (HLA-A*26:01 [4]; source organism: Salmonella enterica subsp. enterica serovar Paratyphi A str. ATCC 9150) was 0.004 µM.

Sequence YTNSVTNIEL has a Kd (HLA-A*68:02; [11]) of 0.0198 µM.

RQLTKFTDF showed a Kd (HLA-B*08:01; [10]) of 0.155 µM.

QKKKQRSGVL showed a Kd (HLA-B*08:01; source organism: Dengue virus 1 Brazil/97-11/1997) of 1.87 µM.

For RLKQLKRQL, the Kd (HLA-A*68:02; source organism: Homo sapiens) was 8.31 µM and the Kd (HLA-A*02:06) was no less than 61.9 µM.

Sequence VVAMRHLSL has a Kd (HLA-B*08:01; [10]) of 0.000976 µM.

In the case of ELVKVREKQL, the Kd (HLA-A*68:02; source organism: Homo sapiens) is reported as 4.33 µM.

With KLNKMTVEL the Kd (HLA-A*32:01; [10]) was 0.00168 µM.

Work on MEKSSKYYI yielded an IC50 (HLA-A*24:02 [3]; [12]) of 1.66 µM and an IC50 (HLA-A*02:01; [12]) of no less than 1680 µM.

With DPAKAYKDY the Kd (HLA-A*24:02 [1]; [5]) was no less than 77.6 µM, the Kd (HLA-A*30:02; [5]) was 9.27 µM and the Kd (HLA-A*26:01 [2]; [5]) was no less than 85.5 µM. It also gave a Kd (HLA-A*23:01; [5]) of no less than 77.8 µM, a Kd (HLA-A*01:01; [5]) of no less than 119 µM and a Kd (HLA-A*29:02; [5]) of 0.446 µM.

For FYLCFLAFLL, the Kd (HLA-A*24:02 [1]; [5]) was 0.0136 µM, the Kd (HLA-A*30:02; [5]) was no less than 85.7 µM and the Kd (HLA-A*26:01 [2]; [5]) was no less than 69.7 µM. The Kd (HLA-A*23:01; [5]) was 6.76e-05 µM, the Kd (HLA-A*01:01; [5]) was no less than 52.5 µM and the Kd (HLA-A*29:02; [5]) was 0.0767 µM.

LEDDRERLK was tested, and the IC50 (HLA-A*24:02 [3]; source organism: Variola virus) was 2.28 µM.

In the case of TSIGKALHQV, the Kd (HLA-A*68:02; [9]) is reported as 0.0104 µM.

ARFSGLLIV was tested, and the IC50 (HLA-A*24:02 [3]; [6]) was no less than 267 µM and the IC50 (HLA-A*02:01; [6]) was no less than 461 µM.

With IIFDIYFAI the Kd (HLA-A*32:01; [10]) was 0.000934 µM.

With INREGKVVGL the Kd (HLA-B*08:01; [7]) was 10.9 µM.

Work on EEAIGKVLL yielded a Kd (HLA-B*40:01) of 0.0137 µM and a Kd (HLA-B*18:01) of 1.72 µM.

VDICFWSTI showed a Kd (HLA-A*24:02 [1]; [13]) of 1.07 µM, a Kd (HLA-A*30:02; [13]) of 5.11 µM and a Kd (HLA-A*26:01 [2]; [13]) of no less than 77.9 µM. The Kd (HLA-A*23:01; [13]) was 12.5 µM, the Kd (HLA-A*01:01; [13]) was 1.76 µM and the Kd (HLA-A*29:02; [13]) was no less than 78.9 µM.

Work on FQSDIPPLL yielded a Kd (HLA-B*39:01) of 0.0087 µM.

In the case of MTCIAVGGI, the Kd (HLA-A*68:02; [11]) is reported as 0.074 µM.

For SLNFRFENV, the Kd (HLA-B*08:01; [10]) was 0.586 µM.

For NTNSVTNIEL, the Kd (HLA-A*68:02; [8]) was 0.0388 µM.

TVDSSQGSEY gave a Kd (HLA-A*24:02 [1]; [5]) of no less than 70.3 µM, a Kd (HLA-A*30:02; [5]) of 0.414 µM and a Kd (HLA-A*26:01 [2]; [5]) of 1.07 µM. The Kd (HLA-A*23:01; [5]) was no less than 70 µM, the Kd (HLA-A*01:01; [5]) was 0.0157 µM and the Kd (HLA-A*29:02; [5]) was 0.823 µM.

Work on SNKYRIKSV yielded a Kd (HLA-B*08:01; [10]) of 0.00266 µM.

Work on VSENTGMGMY yielded a Kd (HLA-A*68:01) of no less than 36.9 µM, a Kd (HLA-A*11:01) of 2.36 µM and a Kd (HLA-A*31:01) of 13.4 µM. For the same sequence, the Kd (HLA-A*29:02; [10]) was 0.034 µM, the Kd (HLA-A*03:01) was 1.62 µM and the Kd (HLA-A*33:01) was no less than 24.2 µM.

Sequence MMMKRLMFE has a Kd (HLA-B*08:01; [10]) of 0.075 µM.

In the case of KREDQWCGSL, the Kd (HLA-B*08:01; [9]) is reported as 7.72 µM.

In the case of LTIFSTIIF, the Kd (HLA-A*32:01; source organism: Vaccinia virus Copenhagen) is reported as 0.264 µM.
